Reference: patent US20190144537A1 (AVEO PHARMACEUTICALS, published 2019)

What was measured:
cynoNotch3 monomer = biological target: T1, cynoNotch3 monomer (cyno); assay: binding to cynoNotch3 monomer at 25° C., protocol similar to that for hNotch3 (method not named)
T1 construct: Only named as 'cynoNotch3 monomer'

[1] = biological target: T2, recombinant human Notch3 extracellular domain (containing EGF like domains 1-11) Fc fusion protein (human, UniProt Q9UM47 40-467); assay: SPR (Biacore), 28042 captured as ligand, rhNotch3-Fc injected as sample, 25 C, 1:1 binding fit; the same fit is printed under the Notch3 sensorgram as ka 2.720E+5
T2 construct: Bought from R&D Systems; also called rhNotch3-Fc; Notch3-Fc; not shown: Fc of the bought fusion protein
T2 sequence: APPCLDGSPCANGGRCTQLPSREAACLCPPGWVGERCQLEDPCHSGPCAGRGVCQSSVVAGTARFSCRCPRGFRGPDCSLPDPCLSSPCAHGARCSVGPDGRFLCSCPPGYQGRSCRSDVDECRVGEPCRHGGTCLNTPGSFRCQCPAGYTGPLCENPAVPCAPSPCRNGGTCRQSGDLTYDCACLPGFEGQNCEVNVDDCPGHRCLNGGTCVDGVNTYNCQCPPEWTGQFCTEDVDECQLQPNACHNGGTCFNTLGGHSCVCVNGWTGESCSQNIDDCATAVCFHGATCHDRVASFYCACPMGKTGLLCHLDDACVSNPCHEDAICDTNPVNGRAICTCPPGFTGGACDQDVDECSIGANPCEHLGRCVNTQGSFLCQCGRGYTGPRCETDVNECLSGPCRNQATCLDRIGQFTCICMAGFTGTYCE
Experimental: (§1) Rabbit anti-mouse IgGs (GE Healthcare) are immobilized on carboxymethylated dextran CM4 sensor chips (GE Healthcare) by amine coupling, according to a standard protocol. Analyses are performed at 25° C. and 37° C. using PBS containing 0.05% surfactant P20 as running buffer. The antibody is captured in individual flow cells at a flow rate of 10 μL/minute. Injection time is varied for each antibody to yield an R max between 30 and 60 RU. 250 μg/mL human IgG Fc is injected to block non-specific binding of Fc (from the Notch3 fusion protein) to the capture antibody. Buffer or rhNotch1-Fc (R&D Systems, Minneapolis, Minn.; Cat. No. 3647-TK-050), rhNotch2-Fc (R&D Cat. No. 3735-NT-050), and rhNotch3-Fc (R&D Cat. No. 1559-NT-050), diluted in running buffer is injected sequentially over a reference surface (no antibody captured) and the active surface (antibody to be tested) for 240 seconds at 60 μL/minute. The dissociation phase is monitored for up to 1500 seconds. The surface is then regenerated with two 60-second injections of 10 mM Glycine-HCl, pH 2.25, at a flow rate of 30 μL/minute. The rhNotch3-Fc, rhNotch2-Fc, and rhNotch1-Fc concentration range tested are 100 nM to 3.125 nM (2 fold dilution).

rhNotch1-Fc = biological target: T3, rhNotch1-Fc (human, UniProt P46531 19-1735); assay: SPR (Biacore), 28042 captured as ligand, rhNotch1-Fc as sample, 25 C; software 1:1 fit printed under a sensorgram that stays below about 1.5; the drawn table gives '-' for this pair
T3 construct: extracellular domain; Bought from R&D Systems; also called R&D Cat. No. 3647-TK-050; not shown: Fc of the bought fusion protein
Experimental: as §1

[2] = biological target: T2, recombinant human Notch3 extracellular …; assay: SPR (Biacore T100), antibody captured by goat anti-human IgG, rhNotch3-Fc injected, 37° C.
Experimental: (§2) Goat anti-human IgG is immobilized on carboxymethylated dextran CM4 sensor chips (GE Healthcare) by amine coupling, according to a standard protocol. Analyses are performed at 25° C. and 37° C. using PBS containing 0.05% surfactant P20 as running buffer. The antibody is captured in individual flow cells at a flow rate of 10 μl/minute. Injection time is varied for each antibody to yield an R max between 30 and 60 resonance units (RU). 250 μg/mL human IgG Fc is injected to block non-specific binding of Fc (from the Notch3 fusion protein) to the capture antibody. Buffer or rhNotch3-Fc diluted in running buffer is injected sequentially over a reference surface (no antibody captured) and the active surface (antibody to be tested) for 240 seconds at 60 μL/minute. The dissociation phase is monitored for up to 1500 seconds. The surface is then regenerated with two 60-second injections of 10 mM Glycine-HCl, pH 2.25, at a flow rate of 30 μL/minute. The rhNotch3-Fc concentration range tested is 100 nM to 3.125 nM (2 fold dilution).
(§3) Kinetic parameters can be determined using the kinetic function of the BIAevaluation software (GE Healthcare) with double reference subtraction. Kinetic parameters for the antibody, kₐ (association rate constant), kd (dissociation rate constant) and KD (equilibrium dissociation constant) are determined.

[3] = biological target: T2, recombinant human Notch3 extracellular …; assay: SPR (Biacore), 28042 captured as ligand, rhNotch3-Fc injected as sample, 25 C, 1:1 binding fit
Experimental: as §1

[4] = biological target: T2, recombinant human Notch3 extracellular …; assay: SPR (Biacore), 28042 captured as ligand, rhNotch3-Fc injected as sample, 25 C, 1:1 binding fit; the same fit is printed under the Notch3 sensorgram as kd 2.580E-4
Experimental: as §1

[5] = biological target: T4, murine Notch3 on the cell surface (murine, UniProt Q61982 40-2318); assay: FACS on FlpIn CHO cells expressing full length murine Notch3, 5 ug/ml antibody, anti-human PE secondary antibody
T4 construct: whole, on cells; also called mNotch3; full length murine Notch3
Experimental: (§4) Full length Notch receptor cDNAs cloned into pcDNA5FRT were transfected into FlpIn™ CHO cells and selected with 600 μg/ml hygromycin (Sigma), according to the manufacturer's protocol. Cell surface expression of Notch receptors is confirmed by FACS analysis using anti-Notch1 PE, anti-Notch2 PE or anti-Notch3 PE control antibodies (Biolegend). […] FACS is performed on a BD FACSCanto II cell analyzer (BD Biosciences) and analyzed using FlowJo software.

[6] = biological target: T5, human Notch3 on the cell surface (human, UniProt Q9UM47 40-2321); assay: FACS at 4° C. on cells expressing human Notch3, one site binding fit; cell line not stated
T5 construct: whole, on cells; also called hNotch3; cell surface human Notch3
Source text: CHO N3 (Flp-In-CHO cells (Invitrogen) stably transfected with human Notch3), HCC2429 cells, and RL-952 cells expressing human Notch3 are washed once with PBS containing calcium chloride and magnesium chloride (Invitrogen) and harvested using cell dissociation buffer (Invitrogen). Cells are washed a second time with PBS and resuspended in FACS buffer (PBS with 0.5% BSA (Sigma-Aldrich)) for a final cell concentration of 250,000 cells per well into a 96-well v-bottom plate. Purified antibodies are diluted in FACS buffer over a concentration range of 100 nM to 0 nM. Cells are then incubated at 4° C. with 100 μL of antibody for one hour, washed with FACS buffer twice, and resuspended in 100 μL of goat-anti mouse PE-conjugated antibody (Jackson Immuno Research). Cells are incubated at 4° C. for 30 minutes in the dark, washed once with FACS buffer, and then analyzed using a Beckman Coulter Cytomics FC 500 instrument. The geometric mean of the florescent intensity then is calculated for each antibody concentration. These values then are entered into Prism software (GraphPad, La Jolla, Calif.) and used to generate a binding curve by plotting geometric mean versus antibody concentration.

[7] = biological target: T5, human Notch3 on the cell surface; assay: cell-based or functional assay
[8] = biological target: T6, human Notch1 on the cell surface (human, UniProt P46531 19-2555); assay: FACS on FlpIn CHO cells expressing full length human Notch1, anti-human PE secondary antibody
T6 construct: whole, on cells; also called cell surface human Notch1; full length human Notch1
Experimental: as §4

[9] = biological target: T7, human Notch2 on the cell surface (human, UniProt Q04721 26-2471); assay: FACS on FlpIn CHO cells expressing full length human Notch2, anti-human PE secondary antibody
T7 construct: whole, on cells; also called cell surface human Notch2; full length human Notch2
Experimental: as §4

[10] = biological target: T2, recombinant human Notch3 extracellular …; assay: SPR (Biacore T100), antibody captured by goat anti-human IgG, rhNotch3-Fc injected, 25° C.
Experimental: as §2, §3

T3 sequence (P46531 19-1735): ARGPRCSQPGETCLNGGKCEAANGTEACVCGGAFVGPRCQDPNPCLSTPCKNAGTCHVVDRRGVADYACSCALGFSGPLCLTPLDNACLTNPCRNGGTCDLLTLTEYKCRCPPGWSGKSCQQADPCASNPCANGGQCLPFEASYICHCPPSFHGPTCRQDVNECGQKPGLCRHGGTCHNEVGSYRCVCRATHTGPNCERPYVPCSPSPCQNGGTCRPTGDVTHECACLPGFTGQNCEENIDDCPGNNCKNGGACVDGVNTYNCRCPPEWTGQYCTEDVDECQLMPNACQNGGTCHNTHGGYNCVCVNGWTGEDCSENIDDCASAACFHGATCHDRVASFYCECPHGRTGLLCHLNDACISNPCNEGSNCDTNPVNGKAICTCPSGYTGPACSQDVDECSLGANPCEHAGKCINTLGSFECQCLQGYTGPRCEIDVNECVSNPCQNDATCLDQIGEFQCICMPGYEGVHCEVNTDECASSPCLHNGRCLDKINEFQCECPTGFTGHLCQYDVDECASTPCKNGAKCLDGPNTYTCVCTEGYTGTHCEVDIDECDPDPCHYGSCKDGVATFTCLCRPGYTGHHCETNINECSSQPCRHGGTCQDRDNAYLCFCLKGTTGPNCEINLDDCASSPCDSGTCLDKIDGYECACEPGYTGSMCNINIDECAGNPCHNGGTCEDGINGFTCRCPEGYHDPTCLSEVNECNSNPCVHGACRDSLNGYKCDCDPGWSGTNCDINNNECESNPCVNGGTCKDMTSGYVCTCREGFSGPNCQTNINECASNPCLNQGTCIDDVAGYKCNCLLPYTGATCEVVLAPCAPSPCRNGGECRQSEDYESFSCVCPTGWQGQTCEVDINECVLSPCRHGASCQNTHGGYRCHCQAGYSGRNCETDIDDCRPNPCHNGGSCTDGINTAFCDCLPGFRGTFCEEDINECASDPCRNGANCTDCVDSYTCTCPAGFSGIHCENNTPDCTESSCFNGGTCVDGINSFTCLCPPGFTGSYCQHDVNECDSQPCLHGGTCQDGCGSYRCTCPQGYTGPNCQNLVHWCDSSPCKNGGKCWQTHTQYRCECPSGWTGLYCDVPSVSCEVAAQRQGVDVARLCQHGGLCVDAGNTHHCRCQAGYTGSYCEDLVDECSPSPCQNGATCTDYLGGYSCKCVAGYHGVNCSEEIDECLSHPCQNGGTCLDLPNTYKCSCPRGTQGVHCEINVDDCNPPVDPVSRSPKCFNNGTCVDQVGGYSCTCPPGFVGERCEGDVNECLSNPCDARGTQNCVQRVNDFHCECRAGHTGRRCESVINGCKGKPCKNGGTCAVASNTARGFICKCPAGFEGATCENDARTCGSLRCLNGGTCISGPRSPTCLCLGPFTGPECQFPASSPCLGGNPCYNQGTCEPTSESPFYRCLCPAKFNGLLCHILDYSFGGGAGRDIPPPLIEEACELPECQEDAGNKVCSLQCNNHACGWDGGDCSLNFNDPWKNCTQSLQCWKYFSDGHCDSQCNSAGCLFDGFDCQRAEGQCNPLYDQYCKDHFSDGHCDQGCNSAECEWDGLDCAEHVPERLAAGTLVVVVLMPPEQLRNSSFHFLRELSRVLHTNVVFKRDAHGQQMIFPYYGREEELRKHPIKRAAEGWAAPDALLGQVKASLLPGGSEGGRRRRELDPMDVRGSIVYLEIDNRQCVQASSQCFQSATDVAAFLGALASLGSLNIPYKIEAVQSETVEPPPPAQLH
T7 sequence (Q04721 26-2471): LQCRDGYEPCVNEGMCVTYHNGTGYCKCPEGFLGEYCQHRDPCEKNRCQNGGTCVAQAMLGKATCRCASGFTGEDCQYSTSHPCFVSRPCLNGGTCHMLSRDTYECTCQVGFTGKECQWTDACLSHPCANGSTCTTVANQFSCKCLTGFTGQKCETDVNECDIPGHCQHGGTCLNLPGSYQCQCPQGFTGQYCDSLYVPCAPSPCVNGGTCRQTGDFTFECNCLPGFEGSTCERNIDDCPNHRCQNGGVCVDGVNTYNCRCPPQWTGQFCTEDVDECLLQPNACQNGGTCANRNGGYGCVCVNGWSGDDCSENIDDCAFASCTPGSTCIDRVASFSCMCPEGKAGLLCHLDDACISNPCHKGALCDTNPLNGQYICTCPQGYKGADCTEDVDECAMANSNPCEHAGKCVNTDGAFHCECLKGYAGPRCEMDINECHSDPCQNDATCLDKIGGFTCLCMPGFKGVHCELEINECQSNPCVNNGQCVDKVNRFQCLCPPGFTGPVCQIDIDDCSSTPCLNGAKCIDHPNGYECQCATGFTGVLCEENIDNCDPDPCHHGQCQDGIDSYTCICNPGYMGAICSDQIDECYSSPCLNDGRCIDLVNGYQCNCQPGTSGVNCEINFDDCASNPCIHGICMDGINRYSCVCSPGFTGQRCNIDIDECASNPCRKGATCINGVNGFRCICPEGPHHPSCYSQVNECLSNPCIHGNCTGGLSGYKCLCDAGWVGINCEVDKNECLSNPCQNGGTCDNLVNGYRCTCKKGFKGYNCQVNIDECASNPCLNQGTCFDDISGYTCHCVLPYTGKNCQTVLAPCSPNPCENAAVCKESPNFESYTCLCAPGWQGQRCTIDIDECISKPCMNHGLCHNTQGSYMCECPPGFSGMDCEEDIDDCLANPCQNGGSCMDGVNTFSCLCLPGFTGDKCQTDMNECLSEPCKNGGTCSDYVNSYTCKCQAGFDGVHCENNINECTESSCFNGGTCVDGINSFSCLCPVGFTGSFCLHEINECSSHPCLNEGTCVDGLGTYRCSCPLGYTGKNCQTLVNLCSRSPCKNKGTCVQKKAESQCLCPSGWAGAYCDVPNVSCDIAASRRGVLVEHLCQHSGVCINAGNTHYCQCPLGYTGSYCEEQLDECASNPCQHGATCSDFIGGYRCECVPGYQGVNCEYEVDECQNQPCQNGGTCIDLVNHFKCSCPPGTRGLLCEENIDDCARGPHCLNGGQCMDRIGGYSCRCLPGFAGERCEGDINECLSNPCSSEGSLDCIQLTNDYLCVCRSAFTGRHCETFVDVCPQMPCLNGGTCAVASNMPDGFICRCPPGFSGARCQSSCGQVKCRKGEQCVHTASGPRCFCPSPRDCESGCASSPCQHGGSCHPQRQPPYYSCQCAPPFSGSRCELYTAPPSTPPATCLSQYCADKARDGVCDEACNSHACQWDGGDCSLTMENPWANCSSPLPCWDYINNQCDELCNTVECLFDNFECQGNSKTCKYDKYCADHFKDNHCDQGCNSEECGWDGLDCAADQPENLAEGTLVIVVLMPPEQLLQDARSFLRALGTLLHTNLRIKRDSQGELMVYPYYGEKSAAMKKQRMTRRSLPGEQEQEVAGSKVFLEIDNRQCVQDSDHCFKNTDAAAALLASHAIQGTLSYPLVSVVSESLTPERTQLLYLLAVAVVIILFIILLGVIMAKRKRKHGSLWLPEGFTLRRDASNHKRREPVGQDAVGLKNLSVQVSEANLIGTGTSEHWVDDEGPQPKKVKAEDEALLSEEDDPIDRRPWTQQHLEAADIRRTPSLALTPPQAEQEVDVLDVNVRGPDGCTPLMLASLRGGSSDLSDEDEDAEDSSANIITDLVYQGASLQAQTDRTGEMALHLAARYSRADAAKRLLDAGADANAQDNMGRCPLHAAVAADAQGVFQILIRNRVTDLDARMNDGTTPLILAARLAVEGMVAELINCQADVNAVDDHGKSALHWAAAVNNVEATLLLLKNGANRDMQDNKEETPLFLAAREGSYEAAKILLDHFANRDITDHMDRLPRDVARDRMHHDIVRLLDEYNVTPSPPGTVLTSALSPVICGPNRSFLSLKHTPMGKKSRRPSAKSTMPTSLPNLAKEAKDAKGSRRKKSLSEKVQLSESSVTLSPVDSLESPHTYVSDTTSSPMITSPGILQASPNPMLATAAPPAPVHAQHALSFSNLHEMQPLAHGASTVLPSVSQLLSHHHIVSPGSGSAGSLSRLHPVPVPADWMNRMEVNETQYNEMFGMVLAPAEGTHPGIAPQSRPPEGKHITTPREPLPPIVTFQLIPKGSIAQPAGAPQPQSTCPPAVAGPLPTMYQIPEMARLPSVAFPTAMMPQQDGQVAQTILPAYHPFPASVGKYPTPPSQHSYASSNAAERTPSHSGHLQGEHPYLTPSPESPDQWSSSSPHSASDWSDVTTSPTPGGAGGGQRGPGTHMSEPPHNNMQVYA

- Kd (cynoNotch3 monomer): 806 nM
- kon [1]: 272000 M⁻¹ s⁻¹
- koff (rhNotch1-Fc): 0.000313 s⁻¹
- kon (rhNotch1-Fc): 104000 M⁻¹ s⁻¹
- Kd [2]: 4.18 nM
- koff [2]: 0.000396 s⁻¹
- kon [2]: 94700 M⁻¹ s⁻¹
- Kd [3]: 0.948 nM
- koff [4]: 0.000258 s⁻¹
- binding result [5]: binds
- Kd [6]: 2.72 nM
- IC50; % inhibition of hJag2-mFc-stimulated RBP-Jk luciferase reporter activity in MDA-MB-468 cells with endogenous human Notch3 [7]: 0.53 ug/ml (unit taken from the x axis 'log (ug/ml)'; the table prints none)
- LogIC50; same reporter assay [7]: -0.276 log (ug/ml)
- binding result [8]: no binding
- binding result [9]: no binding
- Kd [10]: 2.55 nM
- koff [10]: 0.000299 s⁻¹
- kon [10]: 177000 M⁻¹ s⁻¹
B1: 28042 antibody (antibody, human IgG1, kappa, V domains shown)
VH: EVQLLESGGGLVQPGGSLRLSCAASGFTFSDYMMSWVRQAPGKGLEWVSWIRSSGGTTLYADSVKGRFTISRDNSKNTLYLQMNSLRAEDTATYYCARVGGGTTGYAFDIWGQGTMVTVSS
VL: DIQMTQSPSSLSASVGDRVTITCRASQSISNYLNWYQQKPGKAPKLLIYGASSLQSGVPSRVSGTGSGTDFTLTISSLQPEDFATYYCQQSYSPSFTFGPGTKVDFER
